In patent publication US20200338203A1 (Bicycle, published 2020):
Like-named read-outs stand apart in the source and are kept apart here. Each block holds one binder with its values, some of them ahead of it. Numbered stars: 1 amine (or outer) side, 2 acyl side, 3 side chain; on linkers, the order of the positions; unused ones are H or OH. Bridge positions count the residues as written; N and C are the ends. Square brackets hold non-standard residues; d marks the D form. Ends that are not written are not given here. K(FI) = lysine carrying a fluorescein label (FI); 1Nal = N[C@@H](Cc1cccc2ccccc12)C(=O)O; TBMB = c1c(C[*:1])cc(C[*:3])cc1C[*:2]; Gly(cPent) = N[C@H](C(=O)O)C1CCCC1; hArg = N=C(N)NCCCC[C@H](N)C(=O)O; Tle = CC(C)(C)[C@H](N)C(=O)O; AF488 = AlexaFluor488 label; Aib = CC(C)(N)C(=O)O; βAla = NCCC(=O)O; Sar = CNCC(=O)O

Assays:
Mouse EphA2 (Ecto) [1] = target: T1, Mouse EphA2 (Ecto) (Mouse, UniProt Q03145 26-538); assay: FP direct binding
T1 construct: extracellular domain; not shown: Fc fusion or C-terminal polyHis
T1 sequence (Q03145 26-538): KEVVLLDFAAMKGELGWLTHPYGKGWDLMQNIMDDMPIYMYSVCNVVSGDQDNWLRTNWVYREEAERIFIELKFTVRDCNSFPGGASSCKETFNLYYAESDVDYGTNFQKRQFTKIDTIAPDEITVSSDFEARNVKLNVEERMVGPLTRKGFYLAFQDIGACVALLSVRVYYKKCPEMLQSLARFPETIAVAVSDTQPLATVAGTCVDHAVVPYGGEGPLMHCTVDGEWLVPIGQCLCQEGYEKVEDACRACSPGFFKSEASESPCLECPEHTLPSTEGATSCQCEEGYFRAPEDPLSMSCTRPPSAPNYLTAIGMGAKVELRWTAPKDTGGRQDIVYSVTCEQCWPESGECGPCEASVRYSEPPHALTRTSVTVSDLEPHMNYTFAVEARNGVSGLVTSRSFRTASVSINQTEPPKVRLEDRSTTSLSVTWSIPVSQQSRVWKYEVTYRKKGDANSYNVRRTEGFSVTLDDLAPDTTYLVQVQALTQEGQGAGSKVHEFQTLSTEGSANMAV

Human EphA2 (Ecto) [2] = target: T2, Human EphA2 (Ecto) (Human, UniProt P29317 24-537); assay: FP direct binding
T2 construct: extracellular domain
T2 sequence (P29317 24-537): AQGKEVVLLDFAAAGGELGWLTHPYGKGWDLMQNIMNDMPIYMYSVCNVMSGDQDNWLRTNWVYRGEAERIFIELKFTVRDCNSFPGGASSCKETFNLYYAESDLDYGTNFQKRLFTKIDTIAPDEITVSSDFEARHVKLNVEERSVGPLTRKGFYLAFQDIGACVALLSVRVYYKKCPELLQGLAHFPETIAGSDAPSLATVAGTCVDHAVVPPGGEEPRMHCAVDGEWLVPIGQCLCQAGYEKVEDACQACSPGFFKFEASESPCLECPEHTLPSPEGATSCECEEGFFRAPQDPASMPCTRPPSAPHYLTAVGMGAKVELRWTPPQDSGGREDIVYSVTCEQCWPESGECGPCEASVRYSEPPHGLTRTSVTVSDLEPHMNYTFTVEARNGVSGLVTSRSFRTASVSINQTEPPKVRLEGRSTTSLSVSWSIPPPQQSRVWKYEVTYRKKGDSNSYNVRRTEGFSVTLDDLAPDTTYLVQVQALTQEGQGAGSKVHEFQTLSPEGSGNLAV

rat EphA3 (Rat) = rat EphA3 (Rat) (UniProt O08680); assay: FP direct binding, selectivity
rat EphA3 (Rat), sequence (O08680 21-541): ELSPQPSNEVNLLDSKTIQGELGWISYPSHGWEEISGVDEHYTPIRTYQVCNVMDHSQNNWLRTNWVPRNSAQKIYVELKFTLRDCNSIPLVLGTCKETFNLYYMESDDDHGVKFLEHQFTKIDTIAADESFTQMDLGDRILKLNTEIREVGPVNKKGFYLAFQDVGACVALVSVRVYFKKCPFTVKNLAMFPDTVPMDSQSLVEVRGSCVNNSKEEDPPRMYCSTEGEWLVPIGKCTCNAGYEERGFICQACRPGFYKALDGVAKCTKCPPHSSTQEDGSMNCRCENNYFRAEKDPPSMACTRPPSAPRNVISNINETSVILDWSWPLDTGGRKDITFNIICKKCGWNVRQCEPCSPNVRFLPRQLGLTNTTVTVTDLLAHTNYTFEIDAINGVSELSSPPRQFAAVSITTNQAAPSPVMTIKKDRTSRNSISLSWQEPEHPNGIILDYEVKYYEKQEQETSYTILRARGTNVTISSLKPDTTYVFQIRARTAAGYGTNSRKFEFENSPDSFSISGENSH

human EphA4 (Human) = human EphA4 (Human) (UniProt P54764); assay: FP direct binding, selectivity
human EphA4 (Human), sequence (P54764 20-547): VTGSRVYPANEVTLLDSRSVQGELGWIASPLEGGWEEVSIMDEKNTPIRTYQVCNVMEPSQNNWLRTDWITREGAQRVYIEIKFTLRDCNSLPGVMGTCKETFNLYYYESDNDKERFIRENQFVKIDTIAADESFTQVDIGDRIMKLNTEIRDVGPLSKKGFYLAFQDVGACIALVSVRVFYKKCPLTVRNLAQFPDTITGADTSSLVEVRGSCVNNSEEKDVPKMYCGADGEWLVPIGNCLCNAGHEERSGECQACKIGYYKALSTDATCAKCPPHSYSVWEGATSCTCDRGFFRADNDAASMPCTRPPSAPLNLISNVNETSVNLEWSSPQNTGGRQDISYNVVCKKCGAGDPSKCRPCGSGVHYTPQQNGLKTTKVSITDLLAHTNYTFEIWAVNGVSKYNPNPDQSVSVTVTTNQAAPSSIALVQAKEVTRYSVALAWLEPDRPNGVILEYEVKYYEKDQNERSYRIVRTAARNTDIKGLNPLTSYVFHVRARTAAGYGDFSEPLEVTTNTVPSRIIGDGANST

[3] = target: rat & mouse EphA4 (rat & mouse) (UniProt D3ZZK3); assay: FP direct binding, selectivity
dog EphA2 (Dog) = assay: FP direct binding, selectivity
mouse EphA2 = target: T3, mouse EphA2 (Mouse, UniProt Q03145 26-538); assay: FP direct binding, selectivity
T3 construct: extracellular domain; C-terminal polyHis; also called EphA2 (Ecto), Mouse
T3 sequence (Q03145 26-538): as the sequence (Q03145 26-538) above
Method: (§1) The gain used for analysis was determined for each tracer at the end of the 60 minutes where there was no protein in the well. Data was analysed using Systat Sigmaplot version 12.0. mP values were fit to a user defined quadratic equation to generate a Kd value: f=ymin+(ymax−ymin)/Lig*((x+Lig+Kd)/2-sqrt((((x+Lig+Kd)/2)\hat{ }2)−(Lig*x))). “Lig” was a defined value of the concentration of tracer used.

rat EphA2 = rat EphA2 (Rat, UniProt D3ZBN3 27-205); assay: FP direct binding, selectivity
Method: as §1

Mouse EphA2 (Ecto) [4] = target: T1, Mouse EphA2 (Ecto); assay: FP competition; competitor Compound 18
Human EphA2 (Ecto) [5] = target: T2, Human EphA2 (Ecto); assay: FP competition; competitor Compound 18
[6] = target: Human & mouse EphA3 (Human & mouse) (UniProt P29320); assay: FP direct binding, selectivity
Human & mouse EphA3 (Human & mouse), sequence (P29320 21-541): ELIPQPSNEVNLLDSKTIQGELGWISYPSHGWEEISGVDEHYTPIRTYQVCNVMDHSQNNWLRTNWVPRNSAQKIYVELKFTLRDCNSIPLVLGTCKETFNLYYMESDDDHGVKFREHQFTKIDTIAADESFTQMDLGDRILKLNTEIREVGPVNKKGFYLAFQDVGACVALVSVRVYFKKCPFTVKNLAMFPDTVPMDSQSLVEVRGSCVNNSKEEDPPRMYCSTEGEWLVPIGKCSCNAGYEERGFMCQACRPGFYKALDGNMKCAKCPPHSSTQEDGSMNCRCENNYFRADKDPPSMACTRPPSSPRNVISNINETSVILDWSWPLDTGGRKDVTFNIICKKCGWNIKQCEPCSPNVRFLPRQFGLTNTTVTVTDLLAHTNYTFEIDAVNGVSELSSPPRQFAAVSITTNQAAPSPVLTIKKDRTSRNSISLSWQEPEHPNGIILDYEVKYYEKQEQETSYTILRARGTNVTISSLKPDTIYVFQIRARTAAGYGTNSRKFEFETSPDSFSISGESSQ

rat EphB1 = target: T4, rat EphB1 (Rat, UniProt P09759 18-540); assay: FP direct binding, selectivity
T4 construct: extracellular domain; also called EphB1 (Ecto), Rat
T4 sequence (looked up): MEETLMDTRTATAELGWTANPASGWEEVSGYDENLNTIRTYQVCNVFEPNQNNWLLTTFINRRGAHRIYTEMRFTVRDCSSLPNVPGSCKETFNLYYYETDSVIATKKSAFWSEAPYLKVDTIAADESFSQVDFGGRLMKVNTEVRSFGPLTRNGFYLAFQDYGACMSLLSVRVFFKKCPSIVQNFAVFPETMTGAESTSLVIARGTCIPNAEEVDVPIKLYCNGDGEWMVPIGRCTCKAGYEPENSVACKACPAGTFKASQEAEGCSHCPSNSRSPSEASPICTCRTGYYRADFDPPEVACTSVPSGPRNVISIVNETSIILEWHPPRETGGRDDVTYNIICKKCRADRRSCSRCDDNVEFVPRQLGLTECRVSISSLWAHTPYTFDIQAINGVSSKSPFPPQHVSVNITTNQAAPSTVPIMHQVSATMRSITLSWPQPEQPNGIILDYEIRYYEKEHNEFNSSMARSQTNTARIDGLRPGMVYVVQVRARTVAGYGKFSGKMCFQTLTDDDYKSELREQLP
Method: as §1

Human EphA1 = target: T5, Human EphA1 (Human, UniProt P21709 26-547); assay: FP direct binding, selectivity
T5 construct: extracellular domain; also called EphA1 (Ecto), Human
T5 sequence (looked up): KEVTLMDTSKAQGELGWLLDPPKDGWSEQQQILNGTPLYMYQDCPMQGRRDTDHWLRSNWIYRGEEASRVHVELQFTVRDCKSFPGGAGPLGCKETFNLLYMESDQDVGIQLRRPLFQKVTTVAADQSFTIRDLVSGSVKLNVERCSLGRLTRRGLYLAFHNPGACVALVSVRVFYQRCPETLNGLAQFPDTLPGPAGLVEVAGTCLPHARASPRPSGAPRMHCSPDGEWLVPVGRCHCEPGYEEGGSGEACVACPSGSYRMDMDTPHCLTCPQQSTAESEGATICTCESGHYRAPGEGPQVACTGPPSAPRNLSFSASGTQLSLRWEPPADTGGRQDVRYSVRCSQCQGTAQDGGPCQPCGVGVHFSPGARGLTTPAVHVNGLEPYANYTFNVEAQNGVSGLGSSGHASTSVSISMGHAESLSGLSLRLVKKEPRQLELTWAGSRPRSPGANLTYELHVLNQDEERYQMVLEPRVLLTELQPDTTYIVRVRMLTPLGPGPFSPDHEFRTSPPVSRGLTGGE
Method: as §1

Human EphA2 (Ecto) [7] = target: T2, Human EphA2 (Ecto); assay: FP competition; competitor Compound 12
Method: (§2) Peptides without a fluorescent tag were tested in competition with a peptide with a fluorescent tag and a known Kd (Table 2). Peptides were diluted to an appropriate concentration in assay buffer as described in the direct binding assay with a maximum of 5% DMSO, then serially diluted 1 in 2. Five μL of diluted peptide was added to the plate followed by 10 μL of human or mouse EphA2 (Table 1) at a fixed concentration which was dependent on the fluorescent peptide used (Table 2), then 10 μL fluorescent peptide added. Measurements were conducted as for the direct binding assay, however the gain was determined prior to the first measurement.

Human EphA2 (Ecto) [8] = target: T2, Human EphA2 (Ecto); assay: FP competition; competitor Compound 66
Method: as §2

dog EphA2 = dog EphA2 (Dog, UniProt A0A286R219 28-206); assay: FP direct binding, selectivity
Method: as §1

Human EphA2 (Ecto) [9] = target: T2, Human EphA2 (Ecto); assay: FP direct binding; remark: listed apart in the source
Method: as §1

Human EphA2 (Ecto) [10] = target: T2, Human EphA2 (Ecto); assay: FP competition; competitor Compound 18; remark: listed apart in the source

- Ki (Mouse EphA2 (Ecto) [4]): 0.0022 µM
- Ki (Human EphA2 (Ecto) [5]): 0.00205 µM
Binder: Ac-[Sar][Sar]A[dD]VTCPWGPFWCPVNRPGC (linker 7-14-21 via TBMB) [Compound 158]

- Ki (Mouse EphA2 (Ecto) [4]): 0.00208 µM
- Ki (Human EphA2 (Ecto) [5]): 0.001 µM
Binder: Ac-[Sar][Sar]H[dD]VPCPWGPFWCPVNRPGC (linker 7-14-21 via TBMB) [Compound 225]

- Kd (Mouse EphA2 (Ecto) [1]): 0.00344 µM
- Kd (Human EphA2 (Ecto) [2]): 0.00107 µM
- Kd [6]: 0.0825 µM
- Kd (rat EphA3 (Rat)): 0.221 µM
- Kd (human EphA4 (Human)): 7440 µM
- Kd [3]: 1000 µM
- Kd (dog EphA2 (Dog)): 0.00358 µM
- Kd (mouse EphA2): 0.00344 µM
- Kd (rat EphA2): 0.00115 µM
- Kd (Human EphA1): 1.22 µM
Binder: {AF488-βAla}-[Sar][Sar][Sar][Sar][Sar][Sar][Sar][Sar][Sar][Sar]H[dD][Gly(cPent)]PCP[1Nal]G[Aib]F[1Nal]CP[Tle]N[hArg]P[dD]C (linker 15-22-29 via TBMB) [Compound 147]

- Ki (Human EphA2 (Ecto) [10]): 0.00071 µM
- Ki (Mouse EphA2 (Ecto) [4]): 0.00072 µM
Binder: Ac-[Sar][Sar]H[dD]VPCP[1Nal]G[Aib]F[1Nal]CP[Tle]NR[Aib]GC (linker 7-14-21 via TBMB) [Compound 262]

The remaining lines, values behind:

Binder: {AF488-βAla}-[Sar][Sar][Sar][Sar][Sar][Sar][Sar][Sar][Sar][Sar]H[dD]VPC[Aib][1Nal]G[Aib]F[1Nal]CP[Tle]NR[Aib][dD]C (linker 15-22-29 via TBMB) [Compound 141]
- Kd (Mouse EphA2 (Ecto) [1]): 0.0065 µM
- Kd (Human EphA2 (Ecto) [2]): 0.00265 µM
- Kd (rat EphA3 (Rat)): 0.137 µM
- Kd (human EphA4 (Human)): 238 µM
- Kd [3]: 1.89 µM
- Kd (dog EphA2 (Dog)): 0.0133 µM
- Kd (mouse EphA2): 0.0065 µM
- Kd (rat EphA2): 0.00233 µM

Binder: {AF488-βAla}-[Sar][Sar][Sar][Sar][Sar][Sar][Sar][Sar][Sar][Sar]H[dD]VPCP[1Nal]G[Aib]F[1Nal]CP[Tle]NR[Aib][dD]C (linker 15-22-29 via TBMB) [Compound 145]
- Kd (Mouse EphA2 (Ecto) [1]): 0.0038 µM
- Kd (Human EphA2 (Ecto) [2]): 0.00217 µM
- Kd [6]: 0.129 µM
- Kd (rat EphA3 (Rat)): 0.297 µM
- Kd (human EphA4 (Human)): 1.5 µM
- Kd [3]: 2.54 µM
- Kd (dog EphA2 (Dog)): 0.00499 µM
- Kd (mouse EphA2): 0.0038 µM
- Kd (rat EphA2): 0.001 µM
- Kd (rat EphB1): 5.42 µM
- Kd (Human EphA1): 7.26 µM

Binder: ACTTGSIWCALQFEPCA (linker 2-9-16 via TBMB) [Compound 64]
- Ki (Human EphA2 (Ecto) [7]): 0.41 µM
- Ki (Human EphA2 (Ecto) [8]): 0.0634 µM

Binder: ADVTCPWGPFWCPVNRPGCA (N-terminal Fl-G-Sar5 before the entry; three Cys cyclised on TBMB, bicyclic peptide, fluorescent) [Compound 18]
- Kd (dog EphA2): 0.00357 µM
- Kd (mouse EphA2): 0.00402 µM
- Kd (rat EphA2): 0.00172 µM
- Kd (rat EphB1): 1.42 µM

Binder: ACPWGPFWCPVNRPGC (N-terminal AlexaFluor488-G-Sar5 before the entry; three Cys cyclised on TBMB, bicyclic peptide, fluorescent) [Compound 67]
- Kd (dog EphA2): 0.0614 µM
- Kd (rat EphA2): 0.0265 µM

Binder: ACMNDWLCQLGWTCA[Sar][Sar][Sar][Sar][Sar][Sar]-{K(FI)} (linker 2-8-14 via TBMB) [Compound 6]
- Kd (Human EphA2 (Ecto) [9]): 0.00425 µM

Binder: ACPWGPFWCPVNRPGCA (N-terminal Fl-G-Sar5 before the entry; three Cys cyclised on TBMB, bicyclic peptide, fluorescent) [Compound 66]
- Kd (rat EphB1): 2.27 µM
- Kd (Human EphA1): 1.18 µM
